For this assay, the target named is Krüppel-like factor 9 (KLF9) (human (endogenous in MDA-MB-231), UniProt Q13886 1-244). Briefly: co-IP.

These results are taken from article PMC8718897 (Translational Oncology, 2021).

Sequence of Krüppel-like factor 9 (KLF9) (Q13886 whole entry): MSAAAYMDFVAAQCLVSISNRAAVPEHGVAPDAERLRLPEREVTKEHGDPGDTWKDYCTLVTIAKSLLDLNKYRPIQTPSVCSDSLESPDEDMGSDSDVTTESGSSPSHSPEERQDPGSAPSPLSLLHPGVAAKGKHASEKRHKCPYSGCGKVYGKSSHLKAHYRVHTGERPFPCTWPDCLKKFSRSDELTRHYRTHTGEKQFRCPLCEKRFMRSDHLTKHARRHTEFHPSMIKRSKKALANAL

B1: SIN3A (natural protein, UniProt Q96ST3 1-1273, looked up)
chain: MKRRLDDQESPVYAAQQRRIPGSTEAFPHQHRVLAPAPPVYEAVSETMQSATGIQYSVTPSYQVSAMPQSSGSHGPAIAAVHSSHHHPTAVQPHGGQVVQSHAHPAPPVAPVQGQQQFQRLKVEDALSYLDQVKLQFGSQPQVYNDFLDIMKEFKSQSIDTPGVISRVSQLFKGHPDLIMGFNTFLPPGYKIEVQTNDMVNVTTPGQVHQIPTHGIQPQPQPPPQHPSQPSAQSAPAPAQPAPQPPPAKVSKPSQLQAHTPASQQTPPLPPYASPRSPPVQPHTPVTISLGTAPSLQNNQPVEFNHAINYVNKIKNRFQGQPDIYKAFLEILHTYQKEQRNAKEAGGNYTPALTEQEVYAQVARLFKNQEDLLSEFGQFLPDANSSVLLSKTTAEKVDSVRNDHGGTVKKPQLNNKPQRPSQNGCQIRRHPTGTTPPVKKKPKLLNLKDSSMADASKHGGGTESLFFDKVRKALRSAEAYENFLRCLVIFNQEVISRAELVQLVSPFLGKFPELFNWFKNFLGYKESVHLETYPKERATEGIAMEIDYASCKRLGSSYRALPKSYQQPKCTGRTPLCKEVLNDTWVSFPSWSEDSTFVSSKKTQYEEHIYRCEDERFELDVVLETNLATIRVLEAIQKKLSRLSAEEQAKFRLDNTLGGTSEVIHRKALQRIYADKAADIIDGLRKNPSIAVPIVLKRLKMKEEEWREAQRGFNKVWREQNEKYYLKSLDHQGINFKQNDTKVLRSKSLLNEIESIYDERQEQATEENAGVPVGPHLSLAYEDKQILEDAAALIIHHVKRQTGIQKEDKYKIKQIMHHFIPDLLFAQRGDLSDVEEEEEEEMDVDEATGAVKKHNGVGGSPPKSKLLFSNTAAQKLRGMDEVYNLFYVNNNWYIFMRLHQILCLRLLRICSQAERQIEEENREREWEREVLGIKRDKSDSPAIQLRLKEPMDVDVEDYYPAFLDMVRSLLDGNIDSSQYEDSLREMFTIHAYIAFTMDKLIQSIVRQLQHIVSDEICVQVTDLYLAENNNGATGGQLNTQNSRSLLESTYQRKAEQLMSDENCFKLMFIQSQGQVQLTIELLDTEEENSDDPVEAERWSDYVERYMNSDTTSPELREHLAQKPVFLPRNLRRIRKCQRGREQQEKEGKEGNSKKTMENVDSLDKLECRFKLNSYKMVYVIKSEDYMYRRTALLRAHQSHERVSKRLHQRFQAWVDKWTKEHVPREMAAETSKWLMGEGLEGLVPCTTTCDTETLHFVSINKYRVKYGTVFKAP
Consider B1, for which the “fold increase of association after 24 h with 5 uM PF1-SID peptide” value is 4.6 fold and the “fold increase of association in PF1-SID cells against vector cells” value is 2.5 fold.
